Data as given in PMC6453562.

Experiments:
Assay in all cases: native gel or EMSA
[1] = biological target: BG505 SOSIP.664 trimer (HIV-1 (BG505)) (UniProt Q2N0S6)
[2] = biological target: BG505 SOSIP.664-His trimer (HIV-1 (BG505)) (UniProt Q2N0S6)
[3] = biological target: B41 SOSIP.v4.1-His trimer (HIV-1 (B41))

BG505 SOSIP.664 trimer (from UniProt Q2N0S6 1-860; Q2N0S6 1-860) (complex)
stoichiometry N [1]: 3

BG505 SOSIP.664-His trimer (from UniProt Q2N0S6 1-860; Q2N0S6 1-860) (complex)
stoichiometry N [2]: 3

B41 SOSIP.v4.1-His trimer (complex)
stoichiometry N [3]: 3
